Several values for one entry are separate records, joined by “and”; a condition that tells them apart may be missing. Equal values may be shown once.
Experiments:
[1] = biological target: ECF module (EcfA_K122C, EcfA', EcfT) of the C-sensor, cysteine-less background, fluorophore-labelled (Lactobacillus delbrueckii); test: FRET or BRET; single-molecule FRET, TIRF; labelled complex in immobilised liposomes (protein to lipid 1:10.000) with 10 mM Mg-ATP outside (or on both sides), with or without 10 µM vitamin B12 in the lumen; 50 mM KPi pH 7.5, 150 mM NaCl; 90 s recordings, 200 ms frames
[2] = biological target: ECF module (EcfA_K122C, EcfA', EcfT) of the C-sensor, cysteine-less background, fluorophore-labelled (Lactobacillus delbrueckii); test: FRET or BRET; single-molecule FRET, TIRF; labelled complex reconstituted in liposomes (E. coli polar lipids:PC:DOPE-biotin, protein to lipid 1:10.000) immobilised by biotin-neutravidin; 50 mM KPi pH 7.5, 150 mM NaCl; apo, also with Mg-AMP-PNP, Mg-ADP or 10 µM vitamin B12 alone; 90 s recordings, 200 ms frames

CbrT_A182C (S-component of the C-sensor, cysteine-less background, fluorophore-labelled) (natural protein)
half-life to the first dissociation event after ATP addition (ATPout + B12in) [1]: 7 s
half-life to the first dissociation event after ATP addition (ATPout) [1]: 10 s
mean dwell time of the associated state (10 mM Mg-ATP outside; with or without vitamin B12, not told which) [1]: 7.9 s and 8.7 s
mean dwell time of the dissociated state (10 mM Mg-ATP outside, with and without vitamin B12) [1]: 20 s
percent of dynamic traces (association/dissociation transitions), 10 mM Mg-ATP outside [1]: 22.1%
percent of dynamic traces (association/dissociation transitions), ATP outside and 10 µM vitamin B12 in the lumen [1]: 18.7%
percent of dynamic traces (association/dissociation transitions), Mg-ATP on both sides of the membrane [1]: 13.2%
percent of traces static at the low-FRET value 0.08 (dissociated), 10 mM Mg-ATP outside [1]: 19.6%
percent of recorded traces with a dissociation (apo and AMP-PNP conditions) [2]: 1%

Reference: article PMC12075633
